Experiments:
[1] = system: PIP4K2A (WT) (Homo sapiens); assay: EMSA; settings: EMSA 60 min 16 C, 5 ug yeast tRNA, 40 U RNase inhibitor; fluorescent: 500 mM NaCl, 10 mM Tris pH 7.5, 10% glycerol; radioactive: 30 mM KCl, 1 mM MgCl2, 40 mM …
[2] = system: PIP4K2A G131L Y138F (kinase dead) (Homo sapiens); assay: EMSA; settings: EMSA 60 min 16 C, 5 ug yeast tRNA, 40 U RNase inhibitor; fluorescent: 500 mM NaCl, 10 mM Tris pH 7.5, 10% glycerol; radioactive: 30 mM KCl, 1 mM MgCl2, 40 mM …

Row | Substance | Kd [1] [nM] | Kd [2] [nM]
1 | RAD51 3'UTR | 750 | –
2 | RAD51-short (5' proximal 35 bases of RAD51 3'UTR) | 500 | 850
